Patent publication US20080280834A1, “Compounds and methods for inhibiting apoptosis” (University of Pittsburgh of the Commonwealth System of …, priority 2005, published 2008)
pEC50: −log10 of the molar value. Like-named read-outs stand apart in the source and are kept apart here. Residues, ends and D or L forms follow the SMILES beside them. No end group written: not given here.

Columns and labels:
Jurkat cells = type: cell-based, human; conditions: for EC50 (nM): Table 5, Jurkat cells, peptide then recombinant FasL, cell viability
From the text: (§1) Cell Lines, Chemicals, Antibodies & Proteins. Recombinant Human Fas/TNFRSF6/Fc Chimera (cat no. 326-FS-050), Human Fas Ligand/TNFSF6 (cat. No. 126-FL), Anti-human Fas TNFRSF6 Polyclonal Antibody (cat. no. AF326) and Anti-6×Histidine Cross-Linking Ab (cat no. MAB050) were purchased from R&D Systems. Anti-human, IgM-HRP (cat. no. AP320P) was purchased from Chemicon International. Phosphate buffered saline (cat. no. P3563), sodium azide (cat. no. 71289) and 3,3′,5,5′-Tetramethylbenzidine (TMB) Liquid Substrate System for ELISA (cat. no. T0440) were purchased from Sigma-Aldrich. Cliniplate 96-well microplates w/enhanced binding (cat. no. 28298-604) were purchased from VWR. Costar, 96-well, cell culture assay plates (cat. no. 3632) were ordered from Corning Incorporated. Jurkat cells (ATCC no. CRL-1990) and L929 (ATCC no. CRL-2148) were purchased from ATCC and were propagated in RPMI 1640 medium with 2 mM L-glutamine, adjusted to contain 1.5 g/L sodium bicarbonate, 4.5 g/L glucose, 10 mM HEPES, and 1 mM sodium pyruvate, 90%; 10% fetal bovine serum. CellTiter Blue Cell Viability Assay (cat. no. TB317) was purchased from Promega.
Apoptosis Assay. […] Control reactions were diluted with sterile PBS buffer to final volume of 200 μL per well. Peptide solutions (in PBS buffer, pH=7.3) were added in appropriate volumes to reach the desired concentrations in each well given a total volume of 200 μL per well. Apoptosis was induced by the addition of cross-linked human FasL at a concentration of 0.5 ng/ml. Plates were then incubated under sterile conditions, with shaking in a Kendro, model Hera Cell 150 incubator at T=37° C., % CO2=5 for 3 hours. A Cell Titer Blue Cell Viability Assay kit was used (as per accompanying protocol) to determine % apoptosis in cells. Fluorescence readings (560/590 nm) were taken after 4 hours under above cited incubation conditions on a Perkin-Elmer, Victor3 Model automated plate reader. Data was analyzed using standard regression fits in Excel.
Correlating the In-vitro Binding Assays with Cellular Activity. FasL activated apoptosis is known to occur by binding of the ligand to the receptor thereby initiating a series of signaling events leading to caspase production and subsequent cell death. If the YLGA (SEQ ID NO:1) motif isolated in both the α-Met and FasL proteins, is indeed the primary sequence responsible for binding to FasR then at a given concentration, peptides of sufficient Ka values should preferably bind to the receptor. This in turn would block the binding site from FasL and inhibiting cell death in the presence of both peptide and FasL. In order to examine this possibility, Jurkat cells (known to upregulate the Fas receptor) were treated with varying concentrations of peptide and then exposed to recombinant FasL.

FasR = biological target: T1, FasR (Homo sapiens, UniProt P25445); experiment: ELISA binding of peptides to FasR (association constant); conditions: for Ka(M^−1), Measured Association Constants (Ka) for YLGA to XLGA Substituted Peptides / Ka(M^−1), Measured Association Constants (Ka) YLGA and YXGA Substituted Proteins / Ka(M^−1), Measured Association Constants (Ka) for YLGA and YLXA Substituted Peptides / Ka(M − 1), Measured Association Constants (Ka) for YLGA and YLGX Substituted Peptides: ELISA; for Ka(M^−1), Measured Association Constants (Ka) for YLGA to XLGA Substituted Peptides: concentration range 1 nM to 1 μM, first residue varied; for Ka (M^−1), Elongated Peptide Sequences: Table 7, peptides based on the α-Met sequence, Fas receptor; for Ka(M^−1), Measured Association Constants (Ka) YLGA and YXGA Substituted Proteins / Ka(M^−1), Measured Association Constants (Ka) for YLGA and YLXA Substituted Peptides / Ka(M − 1), Measured Association Constants (Ka) for YLGA and YLGX Substituted Peptides: 1 nM to 1 μM; for Ka(M^−1), Measured Association Constants (Ka) YLGA and YXGA Substituted Proteins: second residue varied; for Ka(M^−1), Measured Association Constants (Ka) for YLGA and YLXA Substituted Peptides: third residue varied; for Ka(M − 1), Measured Association Constants (Ka) for YLGA and YLGX Substituted Peptides: fourth residue varied
T1 construct: Fc (IgG Fc fusion partner); purchased R&D Systems 326-FS-050
From the text: as §1
ELISA. Peptides were dissolved in a coating buffer solution (0.05M Sodium Carbonate, 0.02% Sodium Azide, pH=9.6) at the appropriate concentrations to a final concentration of 10 μM. Dilutions were made accordingly to reach desired experimental concentrations. 100 μl aliquots of the peptide solution was added to each well and incubated for 2 hours. All incubations were carried out with shaking at T=37° C. Wells were washed by pipetting solution out of each well, adding 200 μL of washing solution (PBS-Tween; 0.5%), shaking for 15 minutes and emptying each well. Three wash cycles were carried out prior to addition of 200 μL of blocking solution (1% BSA in PBS buffer) to each well followed by incubation for 2 hours. Wells were then washed (as per above procedure) three times. Protein solutions of the appropriate concentrations (Vsolution 50 μL) were then added and incubated for 2 hours. After washing three times (as per above protocol) Fas specific antibody solution (˜1:20,000) was added to each well in 100 μL aliquots and incubated for 1 hour. After washing three times (as per above protocol) IgM-HRP solution (˜1:20,000) was added to each well in 100 μL aliquots and incubated (with shaking) for 1 hour at T=37° C. Wells were washed three times prior to the addition of ready-to-use TMD, followed by incubation for 30 minutes. 2M H2SO4 (3 drops) was added to stop colorimetric reaction and the absorption was taken at 450 nm on a Perkin-Elmer, Victor3 Model automated plate reader. Data was analyzed using standard regression fits in Excel.
Effect of Amino Acid Substitution on Binding Affinities. The binding affinity of each tetrapeptide was determined by standard ELISA with a concentration range of 1 nM to 1 μM. In the first series of peptides, alterations were made only to the tyrosine residue while retaining the final three amino acids homologous in the parent sequence (LGA).

TNFR1 = biological target: T2, TNFR1 (Mus musculus, UniProt P25118); experiment: Inhibition of the TNFR / TNFR1 pathway (EC50); type: cell-based; conditions: Table 8
T2 sequence (P25118 30-454): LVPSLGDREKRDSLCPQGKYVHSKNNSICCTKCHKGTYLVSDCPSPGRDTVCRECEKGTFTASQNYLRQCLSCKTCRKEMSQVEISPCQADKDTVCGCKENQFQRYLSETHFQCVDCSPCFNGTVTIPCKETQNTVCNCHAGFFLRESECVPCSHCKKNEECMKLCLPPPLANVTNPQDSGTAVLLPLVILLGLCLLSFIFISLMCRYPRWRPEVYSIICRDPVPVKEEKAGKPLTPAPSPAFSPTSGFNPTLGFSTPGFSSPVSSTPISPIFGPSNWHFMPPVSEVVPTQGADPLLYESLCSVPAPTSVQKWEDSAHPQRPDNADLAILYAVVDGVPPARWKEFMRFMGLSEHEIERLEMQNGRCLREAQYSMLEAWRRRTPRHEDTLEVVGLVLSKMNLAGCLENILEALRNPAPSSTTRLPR
From the text: This correlation implies a peptide-protein interaction mechanism, wherein whereby tightly bound peptides are capable of blocking FasL association with the receptor and as such, inhibit FasL induced apoptosis.

T1 sequence (P25445 with tags, fused parts or gaps limits assumed): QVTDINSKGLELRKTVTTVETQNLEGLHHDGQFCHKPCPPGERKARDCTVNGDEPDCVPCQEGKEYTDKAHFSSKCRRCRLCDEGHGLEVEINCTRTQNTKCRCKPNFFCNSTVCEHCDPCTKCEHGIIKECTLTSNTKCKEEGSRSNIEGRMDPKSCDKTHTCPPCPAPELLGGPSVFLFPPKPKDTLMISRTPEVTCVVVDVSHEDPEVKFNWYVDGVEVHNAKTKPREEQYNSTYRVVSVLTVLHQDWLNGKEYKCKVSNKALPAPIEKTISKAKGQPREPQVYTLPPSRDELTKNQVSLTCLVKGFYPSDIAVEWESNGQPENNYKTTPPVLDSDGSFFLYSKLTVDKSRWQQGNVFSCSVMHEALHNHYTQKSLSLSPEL

CC(C)C[C@H](NC(=O)[C@@H](N)CC(C)C)C(=O)NCC(=O)N[C@@H](C)C(N)=O [LLGA] (H-LLGA-NH2)
pEC50 (Jurkat cells): 7.03

CC(C)C[C@H](NC(=O)[C@@H](N)CO)C(=O)NCC(=O)N[C@@H](C)C(N)=O [SLGA] (H-SLGA-NH2)
pEC50 (Jurkat cells): 8.22

C[C@H](NC(=O)CNC(=O)[C@H](C)NC(=O)[C@@H](N)Cc1ccc(O)cc1)C(N)=O [YAGA] (H-YAGA-NH2)
pEC50 (Jurkat cells): 8.22

ALGA [tetrapeptide]
Ka(M^−1), Measured Association Constants (Ka) for YLGA to XLGA Substituted Peptides (FasR): no binding

DLGA [tetrapeptide]
Ka(M^−1), Measured Association Constants (Ka) for YLGA to XLGA Substituted Peptides (FasR): 5e+07 M⁻¹

ELGA [tetrapeptide]
Ka(M^−1), Measured Association Constants (Ka) for YLGA to XLGA Substituted Peptides (FasR): 5e+07 M⁻¹

GLGA [tetrapeptide]
Ka(M^−1), Measured Association Constants (Ka) for YLGA to XLGA Substituted Peptides (FasR): no binding

HHIYLGA [HHI YLG A]
Ka (M^−1), Elongated Peptide Sequences (FasR): 3e+08 M⁻¹

HHIYLGAT [HHI YLG AT]
Ka (M^−1), Elongated Peptide Sequences (FasR): 3e+08 M⁻¹

HHIYLGATN [HHI YLG ATN]
Ka (M^−1), Elongated Peptide Sequences (FasR): 3e+08 M⁻¹

HHIYLGATNY [HHI YLG ATN Y]
Ka (M^−1), Elongated Peptide Sequences (FasR): 3e+08 M⁻¹

HHIYLGATNYI [HHI YLG ATN YI]
Ka (M^−1), Elongated Peptide Sequences (FasR): 3e+08 M⁻¹

HHIYLGATNYIY [HHI YLG ATN YIY]
Ka (M^−1), Elongated Peptide Sequences (FasR): 3e+08 M⁻¹

HIYLGATNYIY [HI YLG ATN YIY]
Ka (M^−1), Elongated Peptide Sequences (FasR): 3e+08 M⁻¹

ILGA [tetrapeptide]
Ka(M^−1), Measured Association Constants (Ka) for YLGA to XLGA Substituted Peptides (FasR): 9e+06 M⁻¹

IYLGATNYIY [I YLG ATN YIY]
Ka (M^−1), Elongated Peptide Sequences (FasR): 3e+08 M⁻¹

KLGA [tetrapeptide]
Ka(M^−1), Measured Association Constants (Ka) for YLGA to XLGA Substituted Peptides (FasR): 8e+06 M⁻¹

LGA [LGA (trimer), Y-free trimer peptide]
EC50 (nM) (Jurkat cells): no inhibition

RSSYLGA [RSSYLGA]
pEC50 (Jurkat cells; Table 8, read-out: Fas EC50): 8.48 | TNFR1 EC50 (TNFR1): no inhibition

RSSYLGAVF-NH2 [RSSYLGAVF]
TNFR1 EC50 (TNFR1): no inhibition

TLGA [tetrapeptide]
Ka(M^−1), Measured Association Constants (Ka) for YLGA to XLGA Substituted Peptides (FasR): 2e+08 M⁻¹

YFGA [tetrapeptide]
Ka(M^−1), Measured Association Constants (Ka) YLGA and YXGA Substituted Proteins (FasR): no binding

YGGA [tetrapeptide]
Ka(M^−1), Measured Association Constants (Ka) YLGA and YXGA Substituted Proteins (FasR): 1e+07 M⁻¹ | decrease in measured Ka (FasR; relative to parent YLGA): 20 fold

YIGA
Ka(M^−1), Measured Association Constants (Ka) YLGA and YXGA Substituted Proteins (FasR): 2e+08 M⁻¹

YLAA [tetrapeptide]
Ka(M^−1), Measured Association Constants (Ka) for YLGA and YLXA Substituted Peptides (FasR): 1e+06 M⁻¹ | EC50 (nM) (Jurkat cells): no inhibition

YLGATNYIY [YLG ATN YIY]
Ka (M^−1), Elongated Peptide Sequences (FasR): 3e+08 M⁻¹

YLGI [tetrapeptide]
Ka(M − 1), Measured Association Constants (Ka) for YLGA and YLGX Substituted Peptides (FasR): 3 × 10^7 M − 1

YLGL [tetrapeptide]
Ka(M − 1), Measured Association Constants (Ka) for YLGA and YLGX Substituted Peptides (FasR): 3 × 10^7 M − 1

YLGT [tetrapeptide]
Ka(M − 1), Measured Association Constants (Ka) for YLGA and YLGX Substituted Peptides (FasR): no binding observed

YLIA [tetrapeptide]
Ka(M^−1), Measured Association Constants (Ka) for YLGA and YLXA Substituted Peptides (FasR): no binding observed

YLLA [tetrapeptide]
Ka(M^−1), Measured Association Constants (Ka) for YLGA and YLXA Substituted Peptides (FasR): 1e+06 M⁻¹

YTGA [tetrapeptide]
Ka(M^−1), Measured Association Constants (Ka) YLGA and YXGA Substituted Proteins (FasR): no binding

YVGA
Ka(M^−1), Measured Association Constants (Ka) YLGA and YXGA Substituted Proteins (FasR): 2e+08 M⁻¹

YldAA
Ka(M^−1), Measured Association Constants (Ka) for YLGA and YLXA Substituted Peptides (FasR): no binding observed
